B1: LINE1-mini (parent)
chain: GGCAGAGCUCAACACAGCGUGGCAAAGUGGCUGUGGCUAGACUGCC

The variants in the data set derive from B1. The experiment in a line: self-cleavage, relative activity (ratio to wild type); higher = more cleavage; in vitro, sequencing; the parent is a self-cleaving ribozyme.
Take GGCAGAGCUCAACACCGCGUGGCAAAGUGGCUGUGGCUAGACUGUC [A16C C45U]: the self-cleavage came to 0.07.

GGCAGAGCUCAACACCGCGUGGCAAAGUGGCUGUGGCUAGACUGGC [A16C C45G]: the self-cleavage amounted to 0.06.

As to GGCAGAGCUCAACACCGCGUGGCAAAGUGGCUGUGGCUAGACUGAC [A16C C45A], the self-cleavage was 0.07.

As for GGCAGAGCUCAACACCGCUUGGCAAAGUGGCUGUGGCUAGACUGCC [A16C G19U], the self-cleavage worked out at 0.08.

On to GGCAGAGCUCAACACCGCCUGGCAAAGUGGCUGUGGCUAGACUGCC [A16C G19C], for which the self-cleavage was found to be 0.4.

Take GGCAGAGCUCAACACCGCAUGGCAAAGUGGCUGUGGCUAGACUGCC [A16C G19A]: the self-cleavage was determined as 0.18.

For GGCAGAGCUCAACAUAGCGUGGCAAAGUGGCUGUGGCUAGACUCCC [C15U G44C], the self-cleavage was determined as 0.31.

Regarding GGCAGAGCUCAACAUAGCGUGGCAAAGUGGCUGUGGCUAGACUUCC [C15U G44U], the self-cleavage is 0.09.

On to GGCAGAGCUCAACAUAGCGUGGCAAAGUGGCUGUGGCUAGACUACC [C15U G44A], for which the self-cleavage was found to be 0.26.

As for GGCAGAGCUCAACACCGCGUGGCAAAGUAGCUGUGGCUAGACUGCC [A16C G29A], the self-cleavage amounted to 0.57.

On to GGCAGAGCUCAACACCGCGUGGCAAAGUCGCUGUGGCUAGACUGCC [A16C G29C], for which the self-cleavage was 0.77.

For GGCAGAGCUCAACACCGCGUGGCAAAGUUGCUGUGGCUAGACUGCC [A16C G29U], the self-cleavage is 0.55.

As to GGCAGAGCUCAACACCGCGUGGCAAAGUGGCUGUGGCUAGACUCCC [A16C G44C], the self-cleavage was found to be 0.02.

With GGCAGAGCUCAACACCGCGUGGCAAAGUGGCUGUGGCUAGACUACC [A16C G44A], the self-cleavage is 0.05.

For the variant GGCAGAGCUCAACACCGCGUGGCAAGGUGGCUGUGGCUAGACUGCC [A16C A26G], the self-cleavage was determined as 0.02.

Turning to GGCAGAGCUCAACACCGCGUGGCAACGUGGCUGUGGCUAGACUGCC [A16C A26C], the self-cleavage worked out at 0.04.

As for GGCAGAGCUCAACACCGCGUGGCAAUGUGGCUGUGGCUAGACUGCC [A16C A26U], the self-cleavage turned out to be 0.05.

Consider GGCAGAGCUCAACAUAGCGUGGCAAAGUGGCUGUGGCAAGACUGCC [C15U U38A], for which the self-cleavage is 0.64.

Consider GGCAGAGCUCAACAUAGCGUGGCAAAGUGGCUGUGGCGAGACUGCC [C15U U38G], for which the self-cleavage was found to be 0.04.

As to GGCAGAGCUCAACAUAGCGUGGCAAAGUGGCUGUGGCCAGACUGCC [C15U U38C], the self-cleavage came out at 0.27.

As to GGCAGAGCUCAACACCGCGUGGCAAAGUGGCUGUGGCUAGGCUGCC [A16C A41G], the self-cleavage came to 0.02.

For GGCAGAGCUCAACACCGCGUGGCAAAGUGGCUGUGGCUAGCCUGCC [A16C A41C], the self-cleavage amounted to 0.03.

GGCAGAGCUCAACACCGCGUGGCAAAGUGGCUGUGGCUAGUCUGCC [A16C A41U]: the self-cleavage worked out at 0.05.

Turning to GGCAGAGCUCAACAUAGCGUGGCAAAGUGACUGUGGCUAGACUGCC [C15U G30A], the self-cleavage came out at 0.35.

For the variant GGCAGAGCUCAACAUAGCGUGGCAAAGUGUCUGUGGCUAGACUGCC [C15U G30U], the self-cleavage stood at 0.6.

As to GGCAGAGCUCAACAUAGCGUGGCAAAGUGCCUGUGGCUAGACUGCC [C15U G30C], the self-cleavage worked out at 0.09.

Regarding GGCAGAGCUCAACAUAGCGUGGCAAAGUGGCUGUGGCUAGACCGCC [C15U U43C], the self-cleavage came to 0.14.

GGCAGAGCUCAACAUAGCGUGGCAAAGUGGCUGUGGCUAGACGGCC [C15U U43G]: the self-cleavage is 0.44.

As for GGCAGAGCUCAACAUAGCGUGGCAAAGUGGCUGUGGCUAGACAGCC [C15U U43A], the self-cleavage stood at 0.14.

Take GGCAGAGCUCAACACCCCGUGGCAAAGUGGCUGUGGCUAGACUGCC [A16C G17C]: the self-cleavage amounted to 0.12.

In the case of GGCAGAGCUCAACACCACGUGGCAAAGUGGCUGUGGCUAGACUGCC [A16C G17A], the self-cleavage turned out to be 0.07.

Take GGCAGAGCUCAACACCUCGUGGCAAAGUGGCUGUGGCUAGACUGCC [A16C G17U]: the self-cleavage was 0.08.

Turning to GGCAGAGCUCAACACCGCGUGGCACAGUGGCUGUGGCUAGACUGCC [A16C A25C], the self-cleavage was 0.04.

Consider GGCAGAGCUCAACACCGCGUGGCAGAGUGGCUGUGGCUAGACUGCC [A16C A25G], for which the self-cleavage stood at 0.07.

Turning to GGCAGAGCUCAACACCGCGUGGCAUAGUGGCUGUGGCUAGACUGCC [A16C A25U], the self-cleavage was 0.08.

On to GGCAGAGCUCAACACCGCGUGGCAAAGUGGCUAUGGCUAGACUGCC [A16C G33A], for which the self-cleavage came to 0.07.

Regarding GGCAGAGCUCAACACCGCGUGGCAAAGUGGCUUUGGCUAGACUGCC [A16C G33U], the self-cleavage was determined as 0.05.

GGCAGAGCUCAACACCGCGUGGCAAAGUGGCUCUGGCUAGACUGCC [A16C G33C]: the self-cleavage was found to be 0.05.

As for GGCAGAGCUCAACACCGCGUGGCAAACUGGCUGUGGCUAGACUGCC [A16C G27C], the self-cleavage turned out to be 0.15.

For GGCAGAGCUCAACACCGCGUGGCAAAAUGGCUGUGGCUAGACUGCC [A16C G27A], the self-cleavage stood at 0.26.

Regarding GGCAGAGCUCAACACCGCGUGGCAAAUUGGCUGUGGCUAGACUGCC [A16C G27U], the self-cleavage was determined as 0.14.

On to GGCAGAGCUCAACAUAGCGUGGCAAAGUGGCUGUGCCUAGACUGCC [C15U G36C], for which the self-cleavage was determined as 0.06.

For GGCAGAGCUCAACAUAGCGUGGCAAAGUGGCUGUGUCUAGACUGCC [C15U G36U], the self-cleavage came to 0.12.

With GGCAGAGCUCAACAUAGCGUGGCAAAGUGGCUGUGACUAGACUGCC [C15U G36A], the self-cleavage was 0.15.

With GGCAGAGCUCAACACCGCGUGGCUAAGUGGCUGUGGCUAGACUGCC [A16C A24U], the self-cleavage was 0.11.

With GGCAGAGCUCAACACCGCGUGGCCAAGUGGCUGUGGCUAGACUGCC [A16C A24C], the self-cleavage is 0.07.

Consider GGCAGAGCUCAACACCGCGUGGCGAAGUGGCUGUGGCUAGACUGCC [A16C A24G], for which the self-cleavage amounted to 0.04.

Regarding GGCAGAGCUCAACACCGGGUGGCAAAGUGGCUGUGGCUAGACUGCC [A16C C18G], the self-cleavage stood at 0.04.

Take GGCAGAGCUCAACACCGUGUGGCAAAGUGGCUGUGGCUAGACUGCC [A16C C18U]: the self-cleavage was 0.09.

For GGCAGAGCUCAACACCGAGUGGCAAAGUGGCUGUGGCUAGACUGCC [A16C C18A], the self-cleavage was 0.06.

In the case of GGCAGAGCUCAACAUAGCGUGGCAAAGUGGCUGGGGCUAGACUGCC [C15U U34G], the self-cleavage is 0.07.

Regarding GGCAGAGCUCAACAUAGCGUGGCAAAGUGGCUGCGGCUAGACUGCC [C15U U34C], the self-cleavage turned out to be 0.14.

Regarding GGCAGAGCUCAACAUAGCGUGGCAAAGUGGCUGAGGCUAGACUGCC [C15U U34A], the self-cleavage came out at 0.08.

On to GGCAGAGCUCAACAUAGCGUGGCAAAGAGGCUGUGGCUAGACUGCC [C15U U28A], for which the self-cleavage stood at 1.35.

GGCAGAGCUCAACAUAGCGUGGCAAAGGGGCUGUGGCUAGACUGCC [C15U U28G]: the self-cleavage came out at 0.31.

Turning to GGCAGAGCUCAACAUAGCGUGGCAAAGCGGCUGUGGCUAGACUGCC [C15U U28C], the self-cleavage worked out at 1.52.

Source of the values: the RNAGym collection of RNA variant scans (doi:10.7554/elife.90254).
